Among the data in PMC5318870 are Kd values, retold here.

Usually Kd stands for the concentration at which binding is half-saturated. High values mean lower affinity, low ones higher affinity.

The target in this series is T1, RSV attachment glycoprotein G (RSV-G Protein, His Tag) (respiratory syncytial virus) (UniProt O36633).
T1 sequence: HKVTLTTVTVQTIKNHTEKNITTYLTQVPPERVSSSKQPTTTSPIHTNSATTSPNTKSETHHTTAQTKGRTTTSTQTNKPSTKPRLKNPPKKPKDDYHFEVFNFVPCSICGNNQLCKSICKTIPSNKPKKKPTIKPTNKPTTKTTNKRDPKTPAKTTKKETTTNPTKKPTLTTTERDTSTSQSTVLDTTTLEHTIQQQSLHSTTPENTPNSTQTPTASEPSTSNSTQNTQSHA
Briefly: fluorescence polarization. The note with it: FP: PBS pH 7.4, 0.5 nM aptamer; filter binding: PBS, BSA, 0.1% Tween 20, 0.1 ug/ml poly(dIdC), 50 nM aptamer, 20 min RT; ALPHA: HBSS, 1 mg/ml BSA, 0.05 ug/ml …. In general terms: In fluorescence polarisation assays a small probe gives low polarisation when free and higher when bound to something large.

As for “TAGGGAAGAGAAGGACATATGATAGTGCGGTGAGCCGTCGGACATACAAATACTTGACTAGTACATGACCACTTGA [H8 (Alexa Fluor 488)]”, the Kd came to 30 nM.
